In PMC3375223, “Caspase Inhibitors of the P35 Family Are More Active When Purified from Yeast than Bacteria” (PLoS ONE, 2012):
Several values for one entry are separate records, joined by “and”; a condition that tells them apart may be missing. Equal values may be shown once.

Key:
caspase 3 (human) = caspase 3 (human) (UniProt P42574); test: inhibition of caspase activity on a fluorogenic peptide, inhibition constants by a competitive model; graded concentrations of P35 protein, 30 nM caspase 3, 100 µM Ac-DEVD-AFC; constants of the yeast-purified proteins taken from ref. 22
[1] = target: the molecule itself; test: cross-linking; purified FLAG-tagged MaviP35 incubated in 5 µM BMH for 30 min at room temperature, boiled in loading dye with 5% β-mercaptoethanol, SDS-PAGE and anti-FLAG immunoblot; oligomer sizes by migration against markers
[2] = target: the molecule itself; test: SEC; Superdex S200 on an ÄKTA purifier, 0.6 ml/min, 20 mM Tris pH 7.4, 50 mM NaCl; sizes by elution against BioRad gel filtration standard
[3] = target: the molecule itself; test: AUC; sedimentation velocity of gel filtration fractions (yeast 111–215 kDa, bacterial 89–138 kDa), 20°C, PBS, 40,000 rpm, 230 nm; 0.28 and 0.56 µM bacterial fractions, 1.95, 2.23 and 1.39 µM yeast fractions; c(s) and c(M) fits in SEDFIT

Sequence of caspase 3 (human) (P42574 whole entry): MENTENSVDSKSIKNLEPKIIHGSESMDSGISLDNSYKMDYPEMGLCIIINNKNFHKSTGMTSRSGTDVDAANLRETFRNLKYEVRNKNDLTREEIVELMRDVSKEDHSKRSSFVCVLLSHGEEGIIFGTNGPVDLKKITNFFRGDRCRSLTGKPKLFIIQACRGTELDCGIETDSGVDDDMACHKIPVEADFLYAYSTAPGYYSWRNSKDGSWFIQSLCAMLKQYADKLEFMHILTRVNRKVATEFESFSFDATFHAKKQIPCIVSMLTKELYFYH

B1: AcP35-FLAG purified from Saccharomyces cerevisiae (natural protein)
chain: CVIFPVEIDVSQTIIRDCQVDKQTRELVYINKIMNTQLTKPVLMMFNISGPIRSVTRKNNNLRDRIKSKVDEQFDQLERDYSDQMDGFHDSIKYFKDEHYSVSCQNGSVLKSKFAKILKSHDYTDKKSIEAYEKYCLPKLVDERNDYYVAVCVLKPGFENGSNQVLSFEYNPIGNKVIVPFAHEINDTGLYEYDVVAYVDSVQFDGEQFEEFVQSLILPSSFKNSEKVLYYNEASKNKSMIYKALEFTTESSWGKSEKYNWKIFCNGFIYDKKSKVLYVKLHNVTSALNKNVILNTIK
modifications: N-acetylated amino terminus on 13% of the protein
fold more efficient in caspase 3 inhibition (inhibition constants, Figure 1B) than bacterially-purified AcP35 (caspase 3 (human)): 6 fold

B2: MaviP35-FLAG purified from Escherichia coli (natural protein)
chain: CVIFPVEIDVSQTVIKDCQVNKQTRELVYINKIMNIELTKPVLMMFNISGPIKSVTRKNNNLRDEIKSEIDKQFDQLERDHSTQFDGGHCIKYFKDEHYSISCQSGNVLKSKFEKILKSHGYTDEKSIEAYKKYCLPKLVDEQNNYYVAVCVLKPGFEKGSNQVLSFEYNPIGNKVIVPFAHEINDTGLYEYDAAAYVDNVKFDGEQQFEKFVQSLTLPSAYDDEEVLYYNETSENKRMMYKALEFKTKSCWGKFEWDYWKIFCNGFIYDEKLKVLYVKLHNVTSRVNNNIILNID
modifications: N-acetylated amino terminus on 24% of the protein
notes: MaviP35, the P35 orthologue of Maruca vitrata MNPV; full length protein lacking the initiating methionine (by mass spectrometry); expressed from pET23a-MaviP35-FLAG; Same coding region as m2 (excised from pGALL-(HIS3)-MaviP35-FLAG); the host differs; also called bacterially purified MaviP35; bacterially-produced MaviP35; source: E. coli BL21-(DE3)-pLysS, purified (Anti-FLAG M2-agarose, FLAG …)
stoichiometry N [1]: 10 | stoichiometry N [2]: 3

B3: MaviP35-FLAG purified from Saccharomyces cerevisiae (natural protein)
chain: CVIFPVEIDVSQTVIKDCQVNKQTRELVYINKIMNIELTKPVLMMFNISGPIKSVTRKNNNLRDEIKSEIDKQFDQLERDHSTQFDGGHCIKYFKDEHYSISCQSGNVLKSKFEKILKSHGYTDEKSIEAYKKYCLPKLVDEQNNYYVAVCVLKPGFEKGSNQVLSFEYNPIGNKVIVPFAHEINDTGLYEYDAAAYVDNVKFDGEQQFEKFVQSLTLPSAYDDEEVLYYNETSENKRMMYKALEFKTKSCWGKFEWDYWKIFCNGFIYDEKLKVLYVKLHNVTSRVNNNIILNID
modifications: N-acetylated amino terminus on 12% of the protein
notes: MaviP35, the P35 orthologue of Maruca vitrata MNPV; full length protein lacking the initiating methionine (by mass spectrometry); expressed from pGALL-(HIS3)-MaviP35-FLAG; also called yeast-purified MaviP35; yeast-isolated MaviP35; source: gel filtration for some experiments; not shown: FLAG, C-terminal, kept
stoichiometry N [2]: 2 and 5 | stoichiometry N [3]: 4 and 6 and 8
